The record followed here is the RNAGym collection of RNA variant scans (doi:10.1021/acssynbio.7b00057).

To fix the notation:
B1: Pistol ribozyme (parent)
chain: GGGUCGUUGUUCCAUAAUCGCGUGGAUAUGGCACGCAAGUUUCUACCGGGCACCGUAAAUGUCCGACUGGAGCCGUUCGGGCGGCUAUAAACAGACCUCAGGCCCGAAGCGUGGCGGCACCUGCCGCCGGUGGUAAAAAAGAUCGGAAGAGCACACGUCU

Variants of B1 are the subject of the series. Briefly: aptazyme ON/OFF ratio, guanine; higher = stronger switching; co-transcriptional cleavage with and without guanine.
With GGGUCGUGAACAAAUAAUCGCGUGGAUAUGGCACGCAAGUUUCUACCGGGCACCGUAAAUGUCCGACUGGAGCCGUUCGGGCGGCUAUAAACAGACCUCAGGCCCGAAGCGUGGCGGCACCUGCCGCCGGUGGUAAAAAAGAUCGGAAGAGCACACGUCU, the “aptazyme ON/OFF ratio” value stood at 1.21.

In the case of GGGUCGUGAACAUAUAAUCGCGUGGAUAUGGCACGCAAGUUUCUACCGGGCACCGUAAAUGUCCGACUGGAGCCGUUCGGGCGGCUAUAAACAGACCUCAGGCCCGAAGCGUGGCGGCACCUGCCGCCGGUGGUAAAAAAGAUCGGAAGAGCACACGUCU, the “aptazyme ON/OFF ratio” value worked out at 1.32.

As to GGGUCGUGAACAGAUAAUCGCGUGGAUAUGGCACGCAAGUUUCUACCGGGCACCGUAAAUGUCCGACUGGAGCCGUUCGGGCGGCUAUAAACAGACCUCAGGCCCGAAGCGUGGCGGCACCUGCCGCCGGUGGUAAAAAAGAUCGGAAGAGCACACGUCU, the “aptazyme ON/OFF ratio” value is 1.12.

Turning to GGGUCGUGAAACGAUAAUCGCGUGGAUAUGGCACGCAAGUUUCUACCGGGCACCGUAAAUGUCCGACUGGAGCCGUUCGGGCGGCUAUAAACAGACCUCAGGCCCGAAGCGUGGCGGCACCUGCCGCCGGUGGUAAAAAAGAUCGGAAGAGCACACGUCU, the “aptazyme ON/OFF ratio” value turned out to be 1.01.

Consider GGGUCGUGAAACUAUAAUCGCGUGGAUAUGGCACGCAAGUUUCUACCGGGCACCGUAAAUGUCCGACUGGAGCCGUUCGGGCGGCUAUAAACAGACCUCAGGCCCGAAGCGUGGCGGCACCUGCCGCCGGUGGUAAAAAAGAUCGGAAGAGCACACGUCU, for which the “aptazyme ON/OFF ratio” value turned out to be 1.17.

For the variant GGGUCGUGAAACAAUAAUCGCGUGGAUAUGGCACGCAAGUUUCUACCGGGCACCGUAAAUGUCCGACUGGAGCCGUUCGGGCGGCUAUAAACAGACCUCAGGCCCGAAGCGUGGCGGCACCUGCCGCCGGUGGUAAAAAAGAUCGGAAGAGCACACGUCU, the “aptazyme ON/OFF ratio” value worked out at 1.12.

Regarding GGGUCGUGAAAUGAUAAUCGCGUGGAUAUGGCACGCAAGUUUCUACCGGGCACCGUAAAUGUCCGACUGGAGCCGUUCGGGCGGCUAUAAACAGACCUCAGGCCCGAAGCGUGGCGGCACCUGCCGCCGGUGGUAAAAAAGAUCGGAAGAGCACACGUCU, the “aptazyme ON/OFF ratio” value is 1.09.

For the variant GGGUCGUGAAAUUAUAAUCGCGUGGAUAUGGCACGCAAGUUUCUACCGGGCACCGUAAAUGUCCGACUGGAGCCGUUCGGGCGGCUAUAAACAGACCUCAGGCCCGAAGCGUGGCGGCACCUGCCGCCGGUGGUAAAAAAGAUCGGAAGAGCACACGUCU, the “aptazyme ON/OFF ratio” value is 1.21.

Consider GGGUCGUGAAAUAAUAAUCGCGUGGAUAUGGCACGCAAGUUUCUACCGGGCACCGUAAAUGUCCGACUGGAGCCGUUCGGGCGGCUAUAAACAGACCUCAGGCCCGAAGCGUGGCGGCACCUGCCGCCGGUGGUAAAAAAGAUCGGAAGAGCACACGUCU, for which the “aptazyme ON/OFF ratio” value was 1.36.

Take GGGUCGUGAACUGAUAAUCGCGUGGAUAUGGCACGCAAGUUUCUACCGGGCACCGUAAAUGUCCGACUGGAGCCGUUCGGGCGGCUAUAAACAGACCUCAGGCCCGAAGCGUGGCGGCACCUGCCGCCGGUGGUAAAAAAGAUCGGAAGAGCACACGUCU: the “aptazyme ON/OFF ratio” value is 1.23.

As for GGGUCGUGAACUAAUAAUCGCGUGGAUAUGGCACGCAAGUUUCUACCGGGCACCGUAAAUGUCCGACUGGAGCCGUUCGGGCGGCUAUAAACAGACCUCAGGCCCGAAGCGUGGCGGCACCUGCCGCCGGUGGUAAAAAAGAUCGGAAGAGCACACGUCU, the “aptazyme ON/OFF ratio” value is 1.18.

As for GGGUCGUGAACCCAUAAUCGCGUGGAUAUGGCACGCAAGUUUCUACCGGGCACCGUAAAUGUCCGACUGGAGCCGUUCGGGCGGCUAUAAACAGACCUCAGGCCCGAAGCGUGGCGGCACCUGCCGCCGGUGGUAAAAAAGAUCGGAAGAGCACACGUCU, the “aptazyme ON/OFF ratio” value worked out at 1.06.

Regarding GGGUCGUGAACGUAUAAUCGCGUGGAUAUGGCACGCAAGUUUCUACCGGGCACCGUAAAUGUCCGACUGGAGCCGUUCGGGCGGCUAUAAACAGACCUCAGGCCCGAAGCGUGGCGGCACCUGCCGCCGGUGGUAAAAAAGAUCGGAAGAGCACACGUCU, the “aptazyme ON/OFF ratio” value amounted to 1.36.

Regarding GGGUCGUGAACGGAUAAUCGCGUGGAUAUGGCACGCAAGUUUCUACCGGGCACCGUAAAUGUCCGACUGGAGCCGUUCGGGCGGCUAUAAACAGACCUCAGGCCCGAAGCGUGGCGGCACCUGCCGCCGGUGGUAAAAAAGAUCGGAAGAGCACACGUCU, the “aptazyme ON/OFF ratio” value was 1.21.

With GGGUCGUGAACGAAUAAUCGCGUGGAUAUGGCACGCAAGUUUCUACCGGGCACCGUAAAUGUCCGACUGGAGCCGUUCGGGCGGCUAUAAACAGACCUCAGGCCCGAAGCGUGGCGGCACCUGCCGCCGGUGGUAAAAAAGAUCGGAAGAGCACACGUCU, the “aptazyme ON/OFF ratio” value is 1.24.

GGGUCGUGAACUCAUAAUCGCGUGGAUAUGGCACGCAAGUUUCUACCGGGCACCGUAAAUGUCCGACUGGAGCCGUUCGGGCGGCUAUAAACAGACCUCAGGCCCGAAGCGUGGCGGCACCUGCCGCCGGUGGUAAAAAAGAUCGGAAGAGCACACGUCU: the “aptazyme ON/OFF ratio” value was 1.04.

GGGUCGUGAACGCAUAAUCGCGUGGAUAUGGCACGCAAGUUUCUACCGGGCACCGUAAAUGUCCGACUGGAGCCGUUCGGGCGGCUAUAAACAGACCUCAGGCCCGAAGCGUGGCGGCACCUGCCGCCGGUGGUAAAAAAGAUCGGAAGAGCACACGUCU: the “aptazyme ON/OFF ratio” value amounted to 1.23.

For the variant GGGUCGUGAACACAUAAUCGCGUGGAUAUGGCACGCAAGUUUCUACCGGGCACCGUAAAUGUCCGACUGGAGCCGUUCGGGCGGCUAUAAACAGACCUCAGGCCCGAAGCGUGGCGGCACCUGCCGCCGGUGGUAAAAAAGAUCGGAAGAGCACACGUCU, the “aptazyme ON/OFF ratio” value turned out to be 1.2.
